Changes are numbered by the printed parent chain. Names may count otherwise. Each block holds one binder with its values, some of them ahead of it.
What was measured:
[1] = target: binding partner of C5A (XPA23); assay: Biacore
[2] = target: binding partner of C5A (XPA23); assay: Biacore, K-off
[3] = target: binding partner of C5A (XPA23); assay: Biacore K-off

B1: C5A (XPA23) VH F35D (antibody, V domains shown)
VH: EVQLLESGGGLVQPGGSLRLSCAASGFTFSKYFMDWVRQAPGKGLEWVSVISPSGGMTRYADSVKGRFTISRDNSKNTLYLQMNSLRAEDTAVYYCARVGYGGNSDYWGQGTLVTVSS
VL: DIQMTQSPSSVSASVGDRLTIICRASQDINRWLAWYQQTPGNAPKLLIHSATSLQSGVPSRFSGSGSGTDFTLTINSLQPEDFATYYCQQADSFPLTFGGGTKVEIK
- fold affinity vs original [1]: 0.06 fold
- fold difference in affinity vs original [2]: 0.06 fold

B2: C5A (XPA23) VH F33L (antibody, V domains shown)
VH: B1 VH with F33L, D35F
VL: B1 VL
- fold difference in affinity vs original [1]: 0.88 fold
- fold difference in affinity vs original [3]: 0.88 fold

B4: C5A (XPA23) VH F33V (antibody, V domains shown)
VH: B1 VH with F33V, D35F
VL: B1 VL
- fold difference in affinity vs original [1]: 0.76 fold
- fold difference in affinity vs original [3]: 0.76 fold

B7: C5A (XPA23) VH F35K (antibody, V domains shown)
VH: B1 VH with D35K
VL: B1 VL
- fold affinity vs original [1]: 0.68 fold
- fold difference in affinity vs original [2]: 0.68 fold

B9: C5A (XPA23) VH F33P (antibody, V domains shown)
VH: B1 VH with F33P, D35F
VL: B1 VL
- fold difference in affinity vs original [1]: 0.91 fold
- fold difference in affinity vs original [3]: 0.91 fold

B10: C5A (XPA23) VH I51D (antibody, V domains shown)
VH: B1 VH with D35F, I51D
VL: B1 VL
- fold affinity vs original [1]: 0.07 fold
- fold difference in affinity vs original [2]: 0.07 fold

B11: C5A (XPA23) VH F33G (antibody, V domains shown)
VH: B1 VH with F33G, D35F
VL: B1 VL
- fold difference in affinity vs original [1]: 0.76 fold
- fold difference in affinity vs original [3]: 0.76 fold

B13: C5A (XPA23) VH F33A (antibody, V domains shown)
VH: B1 VH with F33A, D35F
VL: B1 VL
- fold difference in affinity vs original [1]: 0.75 fold
- fold difference in affinity vs original [3]: 0.75 fold

B17: C5A (XPA23) VH I51S (antibody, V domains shown)
VH: B1 VH with D35F, I51S
VL: B1 VL
- fold affinity vs original [1]: 0.69 fold
- fold difference in affinity vs original [2]: 0.69 fold

B18: C5A (XPA23) VH F33W (antibody, V domains shown)
VH: B1 VH with F33W, D35F
VL: B1 VL
- fold affinity vs original [1]: 0.79 fold
- fold difference in affinity vs original [3]: 0.79 fold

B20: C5A (XPA23) VH I51H (antibody, V domains shown)
VH: B1 VH with D35F, I51H
VL: B1 VL
- fold affinity vs original [1]: 0.08 fold
- fold difference in affinity vs original [2]: 0.08 fold

B21: C5A (XPA23) VH I51K (antibody, V domains shown)
VH: B1 VH with D35F, I51K
VL: B1 VL
- fold affinity vs original [1]: 0.11 fold
- fold difference in affinity vs original [2]: 0.11 fold

B22: C5A (XPA23) VH F35Y (antibody, V domains shown)
VH: B1 VH with D35Y
VL: B1 VL
- fold affinity vs original [1]: 0.85 fold
- fold difference in affinity vs original [2]: 0.85 fold

B23: C5A (XPA23) VH F33I (antibody, V domains shown)
VH: B1 VH with F33I, D35F
VL: B1 VL
- fold difference in affinity vs original [1]: 0.75 fold
- fold difference in affinity vs original [3]: 0.75 fold

B24: C5A (XPA23) VH I51Q (antibody, V domains shown)
VH: B1 VH with D35F, I51Q
VL: B1 VL
- fold affinity vs original [1]: 0.83 fold
- fold difference in affinity vs original [2]: 0.83 fold

B26: C5A (XPA23) VH I51R (antibody, V domains shown)
VH: B1 VH with D35F, I51R
VL: B1 VL
- fold affinity vs original [1]: 0.1 fold
- fold difference in affinity vs original [2]: 0.1 fold

B28: C5A (XPA23) VH I51T (antibody, V domains shown)
VH: B1 VH with D35F, I51T
VL: B1 VL
- fold difference in affinity vs original [1]: 0.86 fold
- fold difference in affinity vs original [2]: 0.86 fold

B30: C5A (XPA23) VH I51N (antibody, V domains shown)
VH: B1 VH with D35F, I51N
VL: B1 VL
- fold affinity vs original [1]: 0.68 fold
- fold difference in affinity vs original [2]: 0.68 fold

B33: C5A (XPA23) VH F35S (antibody, V domains shown)
VH: B1 VH with D35S
VL: B1 VL
- fold affinity vs original [1]: 0.09 fold
- fold difference in affinity vs original [2]: 0.09 fold

B35: C5A (XPA23) VH F35T (antibody, V domains shown)
VH: B1 VH with D35T
VL: B1 VL
- fold difference in affinity vs original [1]: 0.74 fold
- fold difference in affinity vs original [2]: 0.74 fold

B38: C5A (XPA23) VH F35N (antibody, V domains shown)
VH: B1 VH with D35N
VL: B1 VL
- fold affinity vs original [1]: 0.86 fold
- fold difference in affinity vs original [2]: 0.86 fold

B39: C5A (XPA23) VH I51E (antibody, V domains shown)
VH: B1 VH with D35F, I51E
VL: B1 VL
- fold affinity vs original [1]: 0.73 fold
- fold difference in affinity vs original [2]: 0.73 fold

Continued, values first:

- fold difference in affinity vs original [1]: 0.91 fold
- fold difference in affinity vs original [3]: 0.91 fold
B3: C5A (XPA23) VH S30L (antibody, V domains shown)
VH: B1 VH with S30L, D35F
VL: B1 VL

- fold difference in affinity vs original [1]: 1.07 fold
- fold difference in affinity vs original [3]: 1.07 fold
B5: C5A (XPA23) VH Y32V (antibody, V domains shown)
VH: B1 VH with Y32V, D35F
VL: B1 VL

- fold affinity vs original [1]: 0.03 fold
- fold difference in affinity vs original [2]: 0.03 fold
B6: C5A (XPA23) VH V50N (antibody, V domains shown)
VH: B1 VH with D35F, V50N
VL: B1 VL

- fold difference in affinity vs original [1]: 0.68 fold
- fold difference in affinity vs original [3]: 0.68 fold
B8: C5A (XPA23) VH Y32P (antibody, V domains shown)
VH: B1 VH with Y32P, D35F
VL: B1 VL

- fold affinity vs original [1]: 0.77 fold
- fold difference in affinity vs original [3]: 0.77 fold
B12: C5A (XPA23) VH S30W (antibody, V domains shown)
VH: B1 VH with S30W, D35F
VL: B1 VL

- fold affinity vs original [1]: 0.05 fold
- fold difference in affinity vs original [3]: 0.05 fold
B14: C5A (XPA23) VH K31F (antibody, V domains shown)
VH: B1 VH with K31F, D35F
VL: B1 VL

- fold difference in affinity vs original [1]: 1.08 fold
- fold difference in affinity vs original [3]: 1.08 fold
B15: C5A (XPA23) VH K31L (antibody, V domains shown)
VH: B1 VH with K31L, D35F
VL: B1 VL

- fold difference in affinity vs original [1]: 0.81 fold
- fold difference in affinity vs original [3]: 0.81 fold
B16: C5A (XPA23) VH K31V (antibody, V domains shown)
VH: B1 VH with K31V, D35F
VL: B1 VL

- fold difference in affinity vs original [1]: 0.75 fold
- fold difference in affinity vs original [3]: 0.75 fold
B19: C5A (XPA23) VH Y32L (antibody, V domains shown)
VH: B1 VH with Y32L, D35F
VL: B1 VL

- fold affinity vs original [1]: 0.75 fold
- fold difference in affinity vs original [3]: 0.75 fold
B25: C5A (XPA23) VH Y32F (antibody, V domains shown)
VH: B1 VH with Y32F, D35F
VL: B1 VL

- fold difference in affinity vs original [1]: 0.77 fold
- fold difference in affinity vs original [3]: 0.77 fold
B27: C5A (XPA23) VH S30A (antibody, V domains shown)
VH: B1 VH with S30A, D35F
VL: B1 VL

- fold difference in affinity vs original [1]: 0.08 fold
- fold difference in affinity vs original [3]: 0.08 fold
B29: C5A (XPA23) VH S30I (antibody, V domains shown)
VH: B1 VH with S30I, D35F
VL: B1 VL

- fold difference in affinity vs original [1]: 0.03 fold
- fold difference in affinity vs original [2]: 0.03 fold
B31: C5A (XPA23) VH V50T (antibody, V domains shown)
VH: B1 VH with D35F, V50T
VL: B1 VL

- fold difference in affinity vs original [1]: 1 fold
- fold difference in affinity vs original [3]: 1 fold
B32: C5A (XPA23) VH Y32G (antibody, V domains shown)
VH: B1 VH with Y32G, D35F
VL: B1 VL

- fold affinity vs original [1]: 0.84 fold
- fold difference in affinity vs original [3]: 0.84 fold
B34: C5A (XPA23) VH K31W (antibody, V domains shown)
VH: B1 VH with K31W, D35F
VL: B1 VL

- fold difference in affinity vs original [1]: 0.74 fold
- fold difference in affinity vs original [3]: 0.74 fold
B36: C5A (XPA23) VH K31I (antibody, V domains shown)
VH: B1 VH with K31I, D35F
VL: B1 VL

- fold affinity vs original [1]: 1.75 fold
- fold difference in affinity vs original [2]: 1.75 fold
B37: C5A (XPA23) VH I51Y (antibody, V domains shown)
VH: B1 VH with D35F, I51Y
VL: B1 VL

From patent US20110118447A1
